Data reported in patent publication US20110086767A1, “MUTANTS OF GLYCOSIDE HYDROLASES AND USES THEREOF FOR SYNTHESIZING COMPLEX OLIGOSACCHARIDES AND DISACCHARIDE INTERMEDIATES” (Institut Pasteur, priority 2008, published 2011).
Substitutions are numbered along the chain they refer to. Numbers in names are those of the source.

B1: A289P-F290C: double mutant A289P, F290C of N. polysaccharea amylosucrase (protein)
chain: SPNSQYLKTRILDIYTPEQRAGIEKSEDWRQFSRRMDTHFPKLMNELDSVYGNNEALLPMLEMLLAQAWQSYSQRNSSLKDIDIARENNPDWILSNKQVGGVCYVDLFAGDLKGLKDKIPYFQELGLTYLHLMPLFKCPEGKSDGGYAVSSYRDVNPALGTIGDLREVIAALHEAGISAVVDFIFNHTSNEHEWAQRCAAGDPLFDNFYYIFPDRRMPDQYDRTLREIFPDQHPGGFSQLEDGRWVWTTFNSFQWDLNYSNPWVFRAMAGEMLFLANLGVDILRMDAVPCIWKQMGTSCENLPQAHALIRAFNAVMRIAAPAVFFKSEAIVHPDQVVQYIGQDECQIGYNPLQMALLWNTLATREVNLLHQALTYRHNLPEHTAWVNYVRSHDDIGWTFADEDAAYLGISGYDHRQFLNRFFVNRFDGSFARGVPFQYNPSTGDCRVSGTAAALVGLAQDDPHAVDRIKLLYSIALSTGGLPLIYLGDEVGTLNDDDWSQDSNKSDDSRWAHRPRYNEALYAQRNDPSTAAGQIYQDLRHMIAVRQSNPRFDGGRLVTFNTNNKHIIGYIRNNALLAFGNFSEYPQTVTAHTLQAMPFKAHDLIGGKTVSLNQDLTLQPYQVMWLEIA
B2: F229M: single mutant F229M of N. polysaccharea amylosucrase (protein)
chain: B1 chain with F229M, P289A, C290F
B3: I228C-F229L: double mutant I228C, F229L of N. polysaccharea amylosucrase (protein)
chain: B1 chain with I228C, F229L, P289A, C290F
B4: I228T-F290K: double mutant I228T, F290K of N. polysaccharea amylosucrase (protein)
chain: B1 chain with I228T, P289A, C290K
B5: I228V-F290H: double mutant I228V, F290H of N. polysaccharea amylosucrase (protein)
chain: B1 chain with I228V, P289A, C290H
B6: I228T-F290H: double mutant I228T, F290H of N. polysaccharea amylosucrase (protein)
chain: B1 chain with I228T, P289A, C290H
B7: I228V-F229L: double mutant I228V, F229L of N. polysaccharea amylosucrase (protein)
chain: B1 chain with I228V, F229L, P289A, C290F
B8: F290G: single mutant F290G of N. polysaccharea amylosucrase (protein)
chain: B1 chain with P289A, C290G
B9: I228K-F290W: double mutant I228K, F290W of N. polysaccharea amylosucrase (protein)
chain: B1 chain with I228K, P289A, C290W
B10: F229L: single mutant F229L of N. polysaccharea amylosucrase (protein)
chain: B1 chain with F229L, P289A, C290F
B11: I228K-F290L: double mutant I228K, F290L of N. polysaccharea amylosucrase (protein)
chain: B1 chain with I228K, P289A, C290L
B12: F290H: single mutant F290H of N. polysaccharea amylosucrase (protein)
chain: B1 chain with P289A, C290H
B13: A289T-F290H: double mutant A289T, F290H of N. polysaccharea amylosucrase (protein)
chain: B1 chain with P289T, C290H
B14: A289H-F290S: double mutant A289H, F290S of N. polysaccharea amylosucrase (protein)
chain: B1 chain with P289H, C290S
B15: I228L-F229L: double mutant I228L, F229L of N. polysaccharea amylosucrase (protein)
chain: B1 chain with I228L, F229L, P289A, C290F
B16: I228V-F229M: double mutant I228V, F229M of N. polysaccharea amylosucrase (protein)
chain: B1 chain with I228V, F229M, P289A, C290F
B17: I228M-F229M: double mutant I228M, F229M of N. polysaccharea amylosucrase (protein)
chain: B1 chain with I228M, F229M, P289A, C290F
B18: I228V-F290R: double mutant I228V, F290R of N. polysaccharea amylosucrase (protein)
chain: B1 chain with I228V, P289A, C290R
B19: I228P-F290C: double mutant I228P, F290C of N. polysaccharea amylosucrase (protein)
chain: B1 chain with I228P, P289A
B20: F290I: single mutant F290I of N. polysaccharea amylosucrase (protein)
chain: B1 chain with P289A, C290I
B21: F290L: single mutant F290L of N. polysaccharea amylosucrase (protein)
chain: B1 chain with P289A, C290L

Test: HPLC screening of double-mutant libraries for variants able to glucosylate D-GlcpNAc
Format: biochemical
Details: α-D-Glcp-(1→4)-α-D-GlcpNAc (ED) from sucrose and D-GlcpNAc, microplate format
Protocol: The protocol was established to enable the rapid identification of clones for which D-GlcpNAc glucosylation was improved. To obtain higher amounts of enzymes and facilitate detection of glucosylated compounds upon HPLC screening, mutants were produced in 96-DeepWell Format plates. Storage microplates containing monomutants were thawed and replicated to inoculate a starter culture in 96-well microplates containing, in each well, 150 μL LB medium supplemented with ampicillin (100 μg/mL). After growth for 24 h at 30° C. under agitation (200 rpm), plates were duplicated into 96-Deep Well plates containing, in each well, 1.1 mL LB medium supplemented with ampicillin (100 μg/mL) and IPTG (1 mM) to induce GST-AS expression. Cultures were then grown for 24 h at 30° C. under agitation (200 rpm). Plates were centrifuged (20 min, 3000 g, 4° C.) and the supernatant was removed. The cell pellet was resuspended in 200 μL of lysozyme (0.5 mg/mL), followed by freezing at −80° C. for 8 to 12 h. After thawing at room temperature, 100 μL of sucrose and 100 μL of acceptor (each at a final concentration of 73 mM) were added to each well. Enzymatic reaction was incubated at 30° C. during 24 h under agitation. The DeepWell plates were then centrifuged (20 min, 3000 g, 4° C.) and 300 μL of the supernatant was transferred to a filter micro-plate (PVDF 0.2 μm) to be clarified. Supernatant filtration was carried out by centrifugation of the filter micro-plate (5 min, 2000 g, 4° C.) into a novel microplate for screening.
The method for the expression of the mutant libraries is described in Example 1-1.
Acceptor reaction products were analyzed by HPLC analysis using a C18-AQ column (Bischoff C18, 125×4 mm, 3 μm) kept at room temperature and eluted with 0.6 mL/min of ultra-pure water to detect α-D-Glcp-(1→4)-α-D-GlcpNAc formation (analysis time: 7 min). To evaluate the efficiency of the glucosylation reaction, it was carried out complementary HPLC analyses with a Biorad HPX-87K Carbohydrate Analysis column (maintained at 65° C., and eluted at a flow rate of 0.6 mL/min with ultra-pure water). By this way, it was possible to measure sucrose consumption by RI detection and concomitant α-D-Glcp-(1-4)-α-D-GlcpNAc formation by UV220 nm and determine mutant ability to synthesize the desired disaccharide α-D-Glcp-(1→4)-α-D-GlcpNAc (i.e., % Glucosyl units transferred onto acceptor derivatives=[Glucosyl units transferred onto acceptor derivatives]/[Glucosyl units transferred from initial sucrose]×100)
All clones producing sucrose-utilizing variants were then picked and cultured in 96-well microplates. Following cell lysis, the acceptor reaction in the presence of D-GlcpNAc was then carried out in microplate format. HLPC analysis time for each clone was reduced to 7 min for detection of α-D-Glcp-(1→4)-α-D-GlcpNAc. When disaccharide formation was detected, complementary analyses were performed to determine sucrose consumption and disaccharide formation with more accuracy in order to calculate the glucosylation yield.

Row | Molecule | Glusosylation Yield to synthesize ED [%]
1 | B1 | 100
2 | B2 | 79
3 | B3 | 78
4 | B4 | 72
5 | B5 | 61
6 | B6 | 56
7 | B7 | 56
8 | B8 | 53
9 | B9 | 50
10 | B10 | 49
11 | B11 | 47
12 | B12 | 46
13 | B13 | 40
14 | B14 | 40
15 | B15 | 35
16 | B16 | 29
17 | B17 | 28
18 | B18 | 25
19 | B19 | 22
20 | B20 | 16

Same assay, conditions: α-D-Glcp-(1→4)-α-D-GlcpNAc (ED) from sucrose and D-GlcpNAc, microplate format, listed as DM4_P2_A2

Row | Molecule | Glusosylation Yield to synthesize ED [%]
21 | B21 | 55

Same assay, conditions: α-D-Glcp-(1→4)-α-D-GlcpNAc (ED) from sucrose and D-GlcpNAc, microplate format, listed as DM4_P2_G9

Row | Molecule | Glusosylation Yield to synthesize ED [%]
22 | B21 | 20

Test: Kinetic parameters towards sucrose donor
Format: biochemical
Details: 250 mM sucrose
Protocol: Enzyme assays were carried out in a total volume of 2 mL containing pure enzyme (0.073 mg, 0.153 mg and 0.092 mg when using A289P-F290C, A289P-F2901 and A289P-F290L, respectively).
Kinetic studies of AS variants were performed in the presence of sucrose (0-500 mM). At regular time intervals (2-5 min), aliquots (200 μL) were removed, heated (95° C., 2 min) and centrifuged (18000 g, 5 min) All the samples were filtered on a 0.22 μm membrane and analyzed using HPLC material previously described. The initial rate of sucrose consumed, corresponding to the initial rate of fructose released, was expressed in mole of fructose released per minute and per gram of enzyme. The kinetic parameters kcat and Km were calculated using Eadie-Hofstee plot.

Row | Molecule | V250mM (initial rate of sucrose consumption) [µmol/min/g]
23 | B1 | 2186

Same assay, conditions: sucrose donor alone

Row | Molecule | behaviour (at high concentration)
24 | B1 | saturation

Test: Kinetic parameters towards α-D-GlcpNAc-OAll acceptor
Format: biochemical
Details: 250 mM for both sucrose and α-D-GlcpNAc-OAll
Protocol: Enzyme assays were carried out in a total volume of 2 mL containing pure enzyme (0.037 mg, 0.076 mg and 0.046 mg when using A289P-F290C, A289P-F2901 and A289P-F290L, respectively).
The kcat/Km (α-D-GlcpNAc-OAll) value was calculated from the initial rate of formation of desired disaccharide (α-D-Glcp-(1→4)-α-D-GlcpNAc-OAll), corresponding to the initial rate of α-D-GlcpNAc-OAll consumed. As saturation was not achieved with the mutants, efficiency was calculated by linear regression analysis of the velocity versus substrate concentration plot.

Row | Molecule | V250mM (initial rate of acceptor consumption)
25 | B1 | 50 000 μmol/min/g
